Entries after “also recorded” stand apart in the source; their conditions may differ.
Legend:
[1] = target: T1, isolated VWF A1 domain (Homo sapiens, UniProt P04275); assay: ELISA binding to isolated VWF A1 domain; details: scFv A1 5 µg ml^-1
T1 construct: coated with purified full length VWF or isolated A1 domain
Method: ELISA wells (Thermo Fisher Scientific) were coated with purified full length VWF or isolated A1 domain at 0.1, 1 and 10 µg ml^-1 in the presence of ristocetin (0.75 mg ml^1) and blocked with 2% BSA. Next, the coated wells were incubated with 5 µg ml^-1 of scFv A1 or sheep anti-VWF antibody followed by incubation with an HRP-conjugated secondary antibody (Anti-his HRP for scFv A1, Donkey anti-sheep HRP antibody for sheep anti-VWF antibody) (1:4,000). Readings were measured at 450 nm on a BMG Optima multi-well reader.

[2] = target: T2, VWF-A1 domain (Homo sapiens, UniProt P04275); assay: BLItz bio-layer interferometry, immobilized VWF-A1 domain; assay type: binding; details: scFv-A1 20, 40 and 100 µg ml^-1
T2 construct: coated with purified full length VWF or isolated A1 domain
Method: Bio-layer Interferometry was performed on a BIItz System (Pall Forte Bio, USA). Protein-A biosensors were hydrated for 30 minutes in PBS-Tween (0.05%) and loaded with VWF-A1 domain (130 µg ml^-1). Remaining binding sites were blocked by exposure to a polyclonal mouse IgG for 5 min. Sequential adhesion of scFv-A1 at 0, 20, 40 and 100 µg ml^-1 was monitored for 5 min per concentration. Real time visualisation of binding interactions between scFv A1 and full length VWF/A1 domain was performed using the BLItz Pro software. Traces were manually baseline aligned and corrected for control binding (0 µg ml^-1 scFv-A1).

[3] = tested on: thrombus formation / platelet deposition; assay: Thrombus formation on collagen type I in stenosis channels (SRG versus constant shear); assay type: cell-based, human; details: for Thrombus formation: 15 minutes of blood flow
Source text: (§1) In-house designed PDMS microfluidic chips (FIG. 1A) contained channels of 52 µm height with a footprint of 300 µm x 46 mm (used in FIG. 1) or 300 µm x 17 mm. Selected channels incorporated a semi-circular stenotic section of various lengths (600 µm, 1000 µm or 2000 µm diameter), creating 80% lumen reduction. Chips were manufactured as previously reported (Westein et al. Proceedings of the National Academy of Sciences of the United States of America. 2013 Jan 22;110(4):1357-62). The produced PDMS chips were sealed with cover slips by hydrophobic interaction and coated with collagen by perfusion of collagen solution followed by static incubation at RT for at least 1 hr. Channels were rinsed with PBS and blocked with 2% BSA. Wall shear rates of the input flow for these microchannels were approximated from volumetric flow rates by using the equation, γ = 6Q/wh2. Herein, γ is the wall shear rate (s^-1), Q the volumetric flow rate (mls^-1), w the channel with (cm) and h the channel height (cm).
(§2) Citrated whole blood was incubated with DiOC6 (0.5 µg ml^-1) (Sigma-Aldrich Co, St. Louis, MO, USA) and drawn through microfluidic channels by a programmable syringe pump (Legato 130, KD Scientific, USA). Time-lapse z-stack images of platelet deposition were captured in multiple track, resonant scanning mode, using a Nikon A1R confocal microscope system. Platelet deposition was recorded over time (2 frames per minute) for up to 20 minutes and quantified in ImageJ using a Z-projection of the acquired signal.

[4] = tested on: VWF-GPIbα bond strength (platelets rolling on VWF-collagen III); assay: Platelet rolling velocity on collagen III bound VWF in stenotic or straight microfluidic channels; assay type: cell-based, human; details: scFv A1
Source text: as §1, with “Herein, γ is the wall shear rate (s^-1), Q the volumetric flow rate (mls^-1), w the channel with (cm) and h the channel height (cm).” left out
For experiments measuring rolling velocities, anti αllbβ3 antibody (abciximab; 20 µg ml^-1)-treated whole blood containing 0.5 µg ml^-1 DiOC6 was drawn over a collagen type III-coated surface. […] 10 second video clips of rolling platelets were recorded in the green fluorescent channel using an Olympus IX81 microscope system. Platelet rolling velocities were calculated using Diatrack v3.04 large scale particle tracking software (Vallotton et al. Microsc Microanal. 2013 Apr;19(2):451-60).

[5] = tested on: platelet aggregation / thrombus formation; assay: Progressive shear gradient flow model: whole blood over collagen type I patches in straight channels; assay type: cell-based, human; details: scFv A1 5 µg ml^-1, 1,000 s^-1
Source text: Fluid dynamics were simulated with a COMSOL Multiphysics 4.2 laminar flow module applied to three-dimensional meshes. For all simulations, no-slip boundary conditions and Newtonian fluids were assumed. To obtain meshes from the plain channel geometries, channel dimensions were taken from the original computer-aided design (CAD) files and reconstructed in COMSOL. To obtain meshes from platelet aggregate geometries, confocal fluorescence microscopy image z-stacks of labeled platelets were processed in ImageJ. Each image in a z-stack was converted into a binary image by thresholding, and an x-y heightmap was constructed by summing all binary data in a z-stack followed by multiplying the result with the height of the original z-stack as documented by the confocal microscope. […] Input flow parameters were set based on pump settings as used in the experiments, and were adjusted to account for the reduced width of the fluorescence aggregate meshes compared to the full channel geometries. […]
as §2, with “Time-lapse z-stack images of platelet deposition were captured in multiple track, resonant scanning mode, using a Nikon A1R confocal microscope system.” left out

[6] = target: VWF (Homo sapiens, UniProt P04275); assay: VWF binding in the presence or absence of ristocetin (FIG. 7)

B1: scFv A1: single chain antibody combining variable heavy chain of mAb CR1 with variable light chain of mAb CR2; VH SEQ ID NO: 11, VL SEQ ID NO: 10 (antibody, V domains shown)
VH: QVQLQQPGAELVRPGASVKLSCKASGYSFTNYWMSWVKQRPGQGLEWIGMIHPSDSDTRLNQKFKDKATLTVDKSSSTAYMQLSSPTSEDSAGLLLCKKFEGWLPVLLGPRHHSHSLLS
VL: DIELTQSPASLAVSLGQSYRASCKSVSTSGYSYMHWNQQKPGQPPRLLIYLVSNLESGVPARFSGSGSGTDFTLNIHPVEEEDAATYYCQHIRELTRSEGDQAEINR
modifications: scFv linker; Mouse
Binding to isolated VWF A1 domain [1]: did not bind | Binding to immobilized VWF-A1 domain [2]: did not observe any binding | Thrombus formation ([3]; 2000 s^-1 constant shear): no effect | Thrombus formation ([3]; SRGs (187-1,500 s^-1)): inhibited thrombus formation | Thrombus formation ([3]; SRGs (300-2,000 s^-1)): inhibited thrombus formation | Inhibition of thrombus formation ([3]; scFv A1 2.5 µg ml^-1): absent | Inhibition of thrombus formation ([3]; scFv A1 5 µg ml^-1): showed inhibition | Relative thrombus growth (ratio of intensity in the last frame over the first frame) ([3]; scFv A1 5 µg ml^-1, SRG, 1,500 s^-1 in stenosis apex, control 1.58±0.22, p<0.001): 1.2±0.09 | Relative thrombus growth (ratio of intensity in the last frame over the first frame) ([3]; scFv A1 5 µg ml^-1, SRG, 2,000 s^-1 in stenosis apex, control 1.85±0.28, p<0.0001): 1.17±0.07 | Relative thrombus growth (ratio of intensity in the last frame over the first frame) ([3]; scFv A1 5 µg ml^-1, constant shear 1,500 s^-1, 10 minutes, other value of the pair 1.48±0.16): 1.62±0.2 | Relative thrombus growth (ratio of intensity in the last frame over the first frame) ([3]; scFv A1 5 µg ml^-1, constant shear 2,000 s^-1, 10 minutes, other value of the pair 2.11±0.23): 1.9±0.36 | Effect on platelet deposition ([3]; scFv A1 5 µg ml^-1, constant shear, straight channel sections): no effect | Inhibition of thrombus formation ([3]; scFv A1 10 µg ml^-1): showed inhibition | Effect on platelet rolling velocities ([4]; areas other than the stenosis apex): largely unaffected | Platelet rolling velocity ([4]; stenosis apex, control 4.41±0.1, p=0.038): 4.6±0.1 µm s^-1 | Platelet aggregation in the rear area of the collagen patch ([5]; constant shear, SRGs absent): did not reduce; also recorded: not at the rear | Platelet aggregation at the front area of the collagen patch ([5]; local shear gradient): selectively attenuated; also recorded: inhibited platelet aggregation only at the front of the patch | Mechanism of VWF binding (dependence on conformation) [6]: conformational-dependent binding
